Measured values reported in patent US20250361280A1 (Protagonist Therapeutics, Inc., priority 2022, published 2025).
Each block holds one molecule with its values, some of them ahead of it.

Assays:
[1] = target: T1, human ferroportin (SLC40A1) fused in frame with the GFP protein, stably expressed in HEK293 cells (human) (UniProt Q9NP59); assay: cell-based or functional assay
T1 sequence (looked up): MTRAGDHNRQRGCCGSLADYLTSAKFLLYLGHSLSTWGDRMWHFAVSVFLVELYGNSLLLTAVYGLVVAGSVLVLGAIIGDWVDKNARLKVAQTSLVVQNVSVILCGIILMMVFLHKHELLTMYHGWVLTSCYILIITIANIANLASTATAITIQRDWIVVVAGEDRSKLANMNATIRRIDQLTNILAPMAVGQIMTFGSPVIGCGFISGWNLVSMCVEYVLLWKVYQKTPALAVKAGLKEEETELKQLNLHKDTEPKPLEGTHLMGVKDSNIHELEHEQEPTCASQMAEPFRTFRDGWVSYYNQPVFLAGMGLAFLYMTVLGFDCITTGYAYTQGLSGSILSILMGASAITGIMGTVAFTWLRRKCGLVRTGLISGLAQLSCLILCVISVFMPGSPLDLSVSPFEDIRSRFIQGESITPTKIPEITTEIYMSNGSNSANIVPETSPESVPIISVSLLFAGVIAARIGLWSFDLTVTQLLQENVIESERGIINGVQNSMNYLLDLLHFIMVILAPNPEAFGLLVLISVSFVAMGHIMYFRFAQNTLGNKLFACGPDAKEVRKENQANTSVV

[2] = target: T2, human ferroportin (Homo sapiens, UniProt Q9NP59); assay: FPN internalization assay (FPN activity assay), loss of ferroportin-GFP fluorescence; format: cell-based; settings: Table 5 reference compounds; value in μM; read-out: Potency EC50
T2 sequence (Q9NP59 1-571): T1 sequence (looked up)

Potency EC50 (nM) [1]: > 10000 nM
Molecule: RI-Mini Hepcidin, Hy-DPhe-DIle-DCys-DIle-DPro-DPhe-DHis-DThr-DAsp-NH2 (peptide)

EC50 [2]: > 10 µM
Molecule: CC[C@@H](C)[C@@H](NC(=O)[C@H](N)Cc1ccccc1)C(=O)N[C@H](CS)C(=O)N[C@@H](C(=O)N1CCC[C@@H]1C(=O)N[C@H](Cc1ccccc1)C(=O)N[C@H](Cc1c[nH]cn1)C(=O)N[C@@H](C(=O)N[C@H](CC(=O)O)C(N)=O)[C@H](C)O)[C@H](C)CC [RI-Mini Hepcidin, Hy-DPhe-DIle-DCys-DIle-DPro-DPhe-DHis-DThr-DAsp-NH2]

Potency EC50 [1]: 712 nM
Molecule: H-DTHFPICIF-NH2 (peptide, from a related filing) [Mini-Hepcidin 1-9, Hy-…-NH2]
